Data published in patent US20250313614A1 (ANNEXON, published 2025).
“And” between values parts separate entries of the source, which are not always exact repeats. Equal entries are not always repeated.

Assays:
[1] = target: T1, human C1q (human, UniProt P02745 23-245; P02746 28-253; P02747 29-245); assay: one-sided ELISA on human C1q, detection with enzyme-tagged anti-human-Fc or anti-human kappa antibody
T1 construct: The three entries are precursors with signal peptides; in the hemolysis and deposition assays it is the C1q of human serum; also called complement factor C1q
T1 sequence (P02745 23-245 limits assumed, chain 1 of 3): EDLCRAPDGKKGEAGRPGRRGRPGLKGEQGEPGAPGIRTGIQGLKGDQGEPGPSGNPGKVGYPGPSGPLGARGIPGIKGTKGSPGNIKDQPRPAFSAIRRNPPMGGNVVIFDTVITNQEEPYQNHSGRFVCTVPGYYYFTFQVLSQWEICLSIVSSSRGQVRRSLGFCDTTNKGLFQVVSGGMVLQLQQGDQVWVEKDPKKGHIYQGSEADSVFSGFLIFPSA
T1 sequence (P02746 28-253 limits assumed, chain 2 of 3): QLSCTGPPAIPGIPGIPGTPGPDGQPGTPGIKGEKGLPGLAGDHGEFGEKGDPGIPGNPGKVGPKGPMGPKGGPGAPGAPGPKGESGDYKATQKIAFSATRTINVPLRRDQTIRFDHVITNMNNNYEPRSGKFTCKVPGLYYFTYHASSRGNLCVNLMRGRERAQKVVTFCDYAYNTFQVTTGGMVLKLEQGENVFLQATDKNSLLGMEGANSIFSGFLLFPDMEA
T1 sequence (P02747 29-245 limits assumed, chain 3 of 3): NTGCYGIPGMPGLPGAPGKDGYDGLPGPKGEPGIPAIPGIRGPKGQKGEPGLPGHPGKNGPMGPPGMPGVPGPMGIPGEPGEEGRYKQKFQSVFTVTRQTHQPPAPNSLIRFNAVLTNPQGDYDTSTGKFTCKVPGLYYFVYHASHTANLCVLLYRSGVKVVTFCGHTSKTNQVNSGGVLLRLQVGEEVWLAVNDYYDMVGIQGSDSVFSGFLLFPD
Source text: Binding of Mab2-Fab, FabA and Mab2 to human C1q in a one-sided ELISA. Bound antibody or Fab molecules were detected using an enzyme-tagged anti-human-Fc or anti-human kappa antibody followed by enzyme substrate.

[2] = target: C1q (Native C1q is a hexamer of A-B-C heterotrimers (18 chains); one chain of each kind is given. The collagen-like regions carry hydroxyproline and hydroxylysine.); assay: cell-based or functional assay
C1q (Native C1q is a hexamer of A-B-C heterotrimers (18 chains); one chain of each kind is given. The collagen-like regions carry hydroxyproline and hydroxylysine.), sequence (A chain, as listed by the source limits assumed, form in doubt, chain 1 of 3): as the sequence (P02745 23-245 limits assumed, chain 1 of 3) above
C1q (Native C1q is a hexamer of A-B-C heterotrimers (18 chains); one chain of each kind is given. The collagen-like regions carry hydroxyproline and hydroxylysine.), sequence (B chain, as listed by the source limits assumed, form in doubt, chain 2 of 3): as the sequence (P02746 28-253 limits assumed, chain 2 of 3) above
C1q (Native C1q is a hexamer of A-B-C heterotrimers (18 chains); one chain of each kind is given. The collagen-like regions carry hydroxyproline and hydroxylysine.), sequence (C chain, as listed by the source limits assumed, form in doubt, chain 3 of 3): as the sequence (P02747 29-245 limits assumed, chain 3 of 3) above

[3] = target: T1, human C1q; assay: cell-based or functional assay

EC50 [1]: 2.5 ng/mL
IC50 of inhibition of the classical pathway (IgM-coated wells, C5b-9 detection, Weislab ELISA kit) [2]: ≤ 300 ng/mL
B1: FabA (Fab)
heavy: QVQLVQSGAELKKPGASVKVSCKSSGYHFTSYWMHWVKQAPGQGLEWIGVIHPNSGSINYNEKFESRVTITVDKSTSTAYMELSSLRSEDTAVYYCAGERDSTEVLPMDYWGQGTTVTVSSASTKGPSVFPLAPSSKSTSGGTAALGCLVKDYFPEPVTVSWNSGALTSGVHTFPAVLQSSGLYSLSSVVTVPSSSLGTQTYICNVNHKPSNTKVDKKVEPKSCDKTHT
light: DVQITQSPSSLSASLGERATINCRASKSINKYLAWYQQKPGKAPKLLIYSGSTLQSGIPARFSGSGSGTDFTLTISSLEPEDFAMYYCQQHNEYPLTFGQGTKLEIKRTVAAPSVFIFPPSDEQLKSGTASVVCLLNNFYPREAKVQWKVDNALQSGNSQESVTEQDSKDSTYSLSSTLTLSKADYEKHKVYACEVTHQGLSSPVTKSFNRGEC
notes: Recombinant humanized IgG1 Fab; also called anti-C1q Fab; anti-C1q antibody Fab fragment
half maximal inhibitory concentration (IC50) of inhibition of IgM-coated RBC hemolysis in human serum [3]: 0.62 µg/mL and ~12 nM
